# Data from patent publication US20210355238A1.
# Experiments:
# [1] = target: Antigen B (monomeric lower molecular weight protein); assay: Biacore SPR at 25°C; mAb captured on anti-human Fc (236.1±0.8 RU), Antigen B injected at 90 nM
# [2] = target: Antigen A (multivalent high molecular weight protein); assay: Biacore SPR at 25°C; mAb captured on anti-human Fc (236.5±1.0 RU), Antigen A injected at 100 nM
substance,measurement,setting,value
isotype control antibody (CI),Antigen B bound - 90 nM (RU),[1],7 RU
same,Antigen A bound - 100 nM (RU),[2],18 RU
